Assay [1] addresses NMDA receptor subunit GluN2A (rat (endogenous in primary cortical neurons)) (UniProt Q00959). Put plainly: co-IP; precleared lysates (700 µg) of rat primary cortical neurons incubated overnight with protein G-agarose carrying anti-GluN2A or anti-GluN2B; blots for STIM1 and STIM2; control neurons and neurons treated with 50 µM NMDA and 100 µM glycine for 15 min; bands normalised to the precipitated subunit.

Assay [2] addresses NMDA receptor subunit GluN2B (rat (endogenous in primary cortical neurons)) (UniProt Q00960). The assay is described as above.
Chain of UniProt Q00960 (Q00960 27-1482): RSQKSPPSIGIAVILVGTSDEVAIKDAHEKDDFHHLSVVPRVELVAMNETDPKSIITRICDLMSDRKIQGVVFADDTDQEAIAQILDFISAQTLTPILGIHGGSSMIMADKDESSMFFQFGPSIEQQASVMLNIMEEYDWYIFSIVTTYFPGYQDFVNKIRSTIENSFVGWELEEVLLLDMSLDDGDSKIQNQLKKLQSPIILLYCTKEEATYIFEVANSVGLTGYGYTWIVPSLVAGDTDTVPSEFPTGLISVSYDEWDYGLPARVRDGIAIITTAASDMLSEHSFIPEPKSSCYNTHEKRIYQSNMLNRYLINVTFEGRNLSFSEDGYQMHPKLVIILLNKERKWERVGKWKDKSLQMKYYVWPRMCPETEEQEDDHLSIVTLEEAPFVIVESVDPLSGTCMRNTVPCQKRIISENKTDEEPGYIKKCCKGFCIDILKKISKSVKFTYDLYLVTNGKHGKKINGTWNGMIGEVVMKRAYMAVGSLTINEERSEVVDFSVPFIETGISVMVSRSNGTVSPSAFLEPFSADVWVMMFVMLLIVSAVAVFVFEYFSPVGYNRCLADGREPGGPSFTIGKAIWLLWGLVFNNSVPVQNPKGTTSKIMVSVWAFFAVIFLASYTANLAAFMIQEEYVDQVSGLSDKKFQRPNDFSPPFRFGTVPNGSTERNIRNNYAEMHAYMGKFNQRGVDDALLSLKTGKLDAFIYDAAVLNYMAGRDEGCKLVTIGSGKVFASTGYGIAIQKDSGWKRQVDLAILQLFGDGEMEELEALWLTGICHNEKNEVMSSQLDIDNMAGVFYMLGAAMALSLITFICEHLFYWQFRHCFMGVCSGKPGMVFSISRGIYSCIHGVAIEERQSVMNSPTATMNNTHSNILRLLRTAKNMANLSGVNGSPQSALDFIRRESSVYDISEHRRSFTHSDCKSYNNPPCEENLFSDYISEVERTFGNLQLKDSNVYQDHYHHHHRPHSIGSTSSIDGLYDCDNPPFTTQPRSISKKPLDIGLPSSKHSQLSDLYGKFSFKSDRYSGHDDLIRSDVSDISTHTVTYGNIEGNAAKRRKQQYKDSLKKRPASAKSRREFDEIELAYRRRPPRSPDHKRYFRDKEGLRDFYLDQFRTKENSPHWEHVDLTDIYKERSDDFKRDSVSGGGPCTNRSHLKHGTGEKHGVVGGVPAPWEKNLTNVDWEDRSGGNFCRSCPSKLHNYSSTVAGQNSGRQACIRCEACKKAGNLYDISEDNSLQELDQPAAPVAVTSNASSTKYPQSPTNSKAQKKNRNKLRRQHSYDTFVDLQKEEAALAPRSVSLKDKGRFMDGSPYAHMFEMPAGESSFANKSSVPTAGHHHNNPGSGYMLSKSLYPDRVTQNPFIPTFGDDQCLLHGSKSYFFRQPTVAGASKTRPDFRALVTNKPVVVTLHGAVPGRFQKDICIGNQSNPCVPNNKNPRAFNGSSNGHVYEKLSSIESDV

Chain of UniProt Q00959 (Q00959 23-1464): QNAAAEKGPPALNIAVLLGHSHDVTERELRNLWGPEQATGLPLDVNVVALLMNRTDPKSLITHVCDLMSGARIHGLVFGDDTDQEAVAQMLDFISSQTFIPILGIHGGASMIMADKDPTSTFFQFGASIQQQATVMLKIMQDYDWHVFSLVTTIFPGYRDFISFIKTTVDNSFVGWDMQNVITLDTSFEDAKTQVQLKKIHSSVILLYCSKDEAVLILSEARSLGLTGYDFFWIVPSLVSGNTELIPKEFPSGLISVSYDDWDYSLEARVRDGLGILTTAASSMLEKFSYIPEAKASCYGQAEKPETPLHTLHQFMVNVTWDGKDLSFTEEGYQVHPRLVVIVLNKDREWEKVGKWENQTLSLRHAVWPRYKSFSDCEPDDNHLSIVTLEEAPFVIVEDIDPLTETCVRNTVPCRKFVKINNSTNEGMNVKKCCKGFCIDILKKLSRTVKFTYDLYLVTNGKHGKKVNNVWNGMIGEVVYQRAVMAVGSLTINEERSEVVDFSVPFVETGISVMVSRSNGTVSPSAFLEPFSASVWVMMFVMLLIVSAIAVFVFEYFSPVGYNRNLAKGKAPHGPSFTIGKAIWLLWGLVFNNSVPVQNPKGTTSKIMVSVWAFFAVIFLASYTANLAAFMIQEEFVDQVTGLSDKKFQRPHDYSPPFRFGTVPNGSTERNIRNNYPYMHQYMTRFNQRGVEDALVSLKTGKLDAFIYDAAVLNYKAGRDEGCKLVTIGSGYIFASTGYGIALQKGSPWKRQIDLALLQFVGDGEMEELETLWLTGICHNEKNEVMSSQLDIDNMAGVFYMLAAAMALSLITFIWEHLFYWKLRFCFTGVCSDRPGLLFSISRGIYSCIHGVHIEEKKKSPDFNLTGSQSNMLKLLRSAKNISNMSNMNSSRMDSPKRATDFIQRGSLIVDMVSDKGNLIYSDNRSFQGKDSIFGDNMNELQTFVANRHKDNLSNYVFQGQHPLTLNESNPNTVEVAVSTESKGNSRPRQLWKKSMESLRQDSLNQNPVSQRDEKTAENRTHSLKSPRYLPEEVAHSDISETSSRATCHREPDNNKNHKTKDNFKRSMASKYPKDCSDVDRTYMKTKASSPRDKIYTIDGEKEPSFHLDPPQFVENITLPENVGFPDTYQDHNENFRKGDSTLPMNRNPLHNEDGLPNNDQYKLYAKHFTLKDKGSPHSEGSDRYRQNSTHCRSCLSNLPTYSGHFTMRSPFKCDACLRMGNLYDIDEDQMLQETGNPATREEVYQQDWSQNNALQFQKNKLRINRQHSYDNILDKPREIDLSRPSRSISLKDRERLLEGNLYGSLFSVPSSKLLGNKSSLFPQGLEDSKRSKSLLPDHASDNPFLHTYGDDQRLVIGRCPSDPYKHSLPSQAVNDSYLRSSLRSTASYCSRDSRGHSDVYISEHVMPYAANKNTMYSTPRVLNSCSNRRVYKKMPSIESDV

Consider “stromal interaction molecule 2 (STIM2) (natural protein)”, for which the co-IP band after NMDA and glycine treatment, percent of control neurons turned out to be 340% in assay [1] and 204% in assay [2].
